Experimental data from patent US20150110806A1.

Target: CD147 expressed on human endothelial cells (hCMEC/D3, hBMEC) and human brain sections (human) (UniProt P35613)
Assay: cell-based or functional assay

Row | Substance | bacterial adhesion to hCMEC/D3 cells (wild-type Nm, cells pretreated with 10 µg/ml MBP-pilin) [% reduction] | initial attachment of Nm to hBMEC cells under flow conditions (10 µg/ml antibody)
1 | MBP-PilE (from UniProt P0AEX9 27-392) | 60 | –
2 | MBP-PilV | 50 | –
3 | anti-CD147 antibody MEM-M6/1 | – | 20 % reduction
4 | anti-CD147 antibody MEM-M6/6 | – | 75 % inhibition
